Assay results from US11672846B2, “Soluble bacterial and fungal proteins and methods and uses thereof in inhibiting and dispersing biofilm” (priority 2014, dated 2023).
“Also recorded” adds a separate entry of the source. Like-named read-outs stand apart in the source and are kept apart here.

B1: BpsB27-701: full-length BpsB residues 27-701, B. bronchiseptica RB50, SEQ ID NO: 18 (protein, listed as Bordetella bronchiseptica)
chain: YKVDMLPPPDPDDGLTFRVLCMHDVRDNLRASFADMPDQFAIETRTLTDLFEWIRVKGFNPISMQQIIDSRAGVRPLPPRPILLTFDDGYASTYTKVFPLLKKFNYPAVVAVVTSWTDAPAGTKIRLSPKIEVPHDFFMTWAQLREMAQSGLVELASHSHNLHRGVLANPQGNEQPAASSRQYLPASGRYENDAEYRARVRQDLKTSADLIREHTGVTIRSIVWPYGAHNRDTDQVAAEVGLNIGLTLQPGPNTPDVALTQIRRSLVDYEVNVATVARAMREPVSYHGQVRPIERIVQVDLDYIYDPDPEQQNRNLGQLIDRMKDLAPSAVYLQAFADPKGDGDITEVYFPNRHLPMRADLFNRVAWQLKTRAGVMVYAWLPVLTFSVPPGNPAYGKVVQSTTRKPGERGLGSPTRLSPFHPDAHRVISEIYEDLAKAAHFDGLLFHDDAVLDDTEDSSPEALATYQGWGLPPDIAAIRADPKLAQQWSKGKIRYLIDFTMHLRHIVSGYQNDRDMVVARNLYAQPVLDPVSEAWYGQSLPEFLKSYDFVALMAMPNMEGAARPEQWMRQLVAAVARQKGLDRTIFELQARDWRVGKPIDTEILRRQMVQLRSLGAINYGYYPDDFIANHPDAEALRDVMSLKSTLEKRRLTKAQELSRQTTLYGSASQAEPTQR
B2: GmetPelA23-277: PelA ortholog, residues 23-277, from Geobacter metallireducens, SEQ ID NO: 14 (protein, listed as Geobacter metallireducens)
chain: PPLSVALYYGKQPPVNDLHAFDIVVIDPDSGLTPSEYGSGRSELFAYVSVGEADTARSYTKQMPDRWIIGKNPVWKSKIVDVSSEEWKQFFLDDVVEPLWQAGYRGFFLDTLDSYLIAAPTEAHPRMEAGLVSVVRAIRQRHPEARLILNRGFEIFDRVKDLVYAVAAESLFQNFNTVSGKYGAVDDKDRSWLTSRLNVIRETGVPVIAIDYVDPGNRPLMRETADKIRSLGFTPWVTDKDLAGLGIGSVEVMPRTVLGLYDGGEGAG
B3: PgaB310-672: PgaB C-terminal hydrolase domain residues 310-672, SEQ ID NO: 17 (protein, listed as Escherichia coli)
chain: EKSPQRIMHIDLDYVYDENLQQMDRNIDVLIQRVKDMQISTVYLQAFADPDGDGLVKEVWFPNRLLPMKADIFSRVAWQLRTRSGVNIYAWMPVLSWDLDPTLTRVKYLPTGEKKAQIHPEQYHRLSPFDDRVRAQVGMLYEDLAGHAAFDGILFHDDALLSDYEDASAPAITAYQQAGFSGSLSEIRQNPEQFKQWARFKSRALTDFTLELSARVKAIRGPHIKTARNIFALPVIQPESEAWFAQNYADFLKSYDWTAIMAMPYLEGVAEKSADQWLIQLTNQIKNIPQAKDKSILELQAQNWQKNGQHQAISSQQLAHWMSLLQLNGVKNYGYYPDNFLHNQPEIDLIRPEFSTAWYPKND
B4: Sph3AN(43-299): Sph3 ortholog residues 43-299, Aspergillus nidulans FGSC A4, SEQ ID NO: 23 (protein)
chain: RRKNNNMGPKAKVFVPLYVYPAPGAWDPLVNVITAHPDVNFTVVVNPGSGPGPNPLPDRNYTQEIPRLTAHDNVRVLGYVATTYAKRNISSVRNDIETYAAWPTISANPKLAVRGIFFDETPQQYNASDLAYLEELTSVVKNTPGLGPDHFVFHNPGVVPDPRYLSTADSTVVFEATYDTFQDRDGARLFETIPNSNRSQLCAVVHSVPDSVEGSELRKFVKQARRVADEIFVTHLSTNYYASFGDKWDDFVRLMAQ
modifications: Aspergillus nidulans
B5: Sph352-298: soluble Sph3 residues 52-298, Aspergillus fumigatus Af293, SEQ ID NO: 20 (protein, listed as Aspergillus fumigatus)
chain: SKVFVPLYVYPAPGAWTPLEDVISKHPDVNFTVVINPGSGPGPNALPDGNYTREIPKLASYENVRLLGYVATTYAKRNISLVRRDIETYAAWPTNSSNPALAVRGIFFDETPQQYDEDALAYLQELTDVVKNTPGLGPDHYVVHNPGAIPDSRYLSTADSTVVFEATYDTFQERHGAKLFEAIPDSNRSQLCAVIHSVPESVEGSALRSLVKQVRKVADEIFITHLDTDYYASFGRQWPEFVDLMGK
B6: PgaB22-672: PgaB residues 22-672, E. coli K-12 MG1655, SEQ ID NO: 16 (protein, listed as Escherichia coli)
chain: ISQSRTSFIPPQDRESLLAEQPWPHNGFVAISWHNVEDEAADQRFMSVRTSALREQFAWLRENGYQPVSIAQIREAHRGGKPLPEKAVVLTFDDGYQSFYTRVFPILQAFQWPAVWAPVGSWVDTPADKQVKFGDELVDREYFATWQQVREVARSRLVELASHTWNSHYGIQANATGSLLPVYVNRAYFTDHARYETAAEYRERIRLDAVKMTEYLRTKVEVNPHVFVWPYGEANGIAIEELKKLGYDMFFTLESGLANASQLDSIPRVLIANNPSLKEFAQQIITVQEKSPQRIMHIDLDYVYDENLQQMDRNIDVLIQRVKDMQISTVYLQAFADPDGDGLVKEVWFPNRLLPMKADIFSRVAWQLRTRSGVNIYAWMPVLSWDLDPTLTRVKYLPTGEKKAQIHPEQYHRLSPFDDRVRAQVGMLYEDLAGHAAFDGILFHDDALLSDYEDASAPAITAYQQAGFSGSLSEIRQNPEQFKQWARFKSRALTDFTLELSARVKAIRGPHIKTARNIFALPVIQPESEAWFAQNYADFLKSYDWTAIMAMPYLEGVAEKSADQWLIQLTNQIKNIPQAKDKSILELQAQNWQKNGQHQAISSQQLAHWMSLLQLNGVKNYGYYPDNFLHNQPEIDLIRPEFSTAWYPKND

Tests used:
[1] = tested on: PNAG-overproducing E. coli biofilms; assay: Dispersal of pre-formed PNAG-dependent E. coli biofilms; conditions: read-out: EC50 of degradation of pre-formed E. coli biofilm; 60 min, average starting OD595 of 0.5
Procedure: Bacterial cultures expressing Psl were inoculated as stated above and were grown at 37° C. overnight with shaking at 200 rpm. All cultures were diluted in 1:100 in LB and arabinose was added to a final concentration of 0.5% (w/v) to induce Psl biosynthesis. Media containing the Psl-producing cultures were supplemented with 200 μg/mL ampicillin and 100 μg/mL kanamycin. The cultures were incubated statically for 24 h at 26° C. to allow for biofilm formation. After incubation non-adherent cells and media were removed by washing the plate with deionized water three times. The wells were filled with 95 μL of 100 mM sodium HEPES buffer pH 7.0 followed by 5 μL of varying concentrations of each hydrolytic enzyme (2 nM-5 μM). Reactions were allowed to proceed for up to 60 min at 25° C. on a rotating nutator at which time, the reaction was quenched by washing the plates with deionized water. The wells were stained with 200 μL of 0.1% (w/v) crystal violet for 10 min, and washed with water three times. Crystal violet dye from Psi cultures was solubilized in 100 μL of 95% ethanol for 10 min with rotation, after which time the absorbance was measured at 595 nm using a SpectraMax M2 from Molecular Devices (Sunnyvale, Calif.). The amount of biofilm is proportional to the absorbance from staining with crystal violet (Merritt et al 2005). All reactions were completed in at least triplicate and 100 mM sodium HEPES buffer pH 7.0 was used as an untreated control. The addition of 2.5 mg/mL kanamycin to culture prior to biofilm formation was used as a positive control as no cell growth occurs.
PNAG-overproducing E. coli was grown at 37° C. overnight in LB broth supplement with 200 ug/mL ampicillin and 100 ug/mL kanamycin with shaking at 200 rpm. An E. coli μgaABCD knockout strain was used as a non-biofilm forming control for background straining.

[2] = Reducing sugar assay on dPNAG; type: biochemical, S. aureus
Procedure: Isolated dPNAG from S. aureus strain MN8m was solubilized in 6 N HCl at ˜10 mg/mL. 10 N NaOH was used to titrate the re-suspension until neutrality was reached, ˜pH 7-8. In a 50 μL reaction, 1 μM BpsB318-670 was incubated with 1-5 mg/mL of dPNAG in 100 mM HEPES pH 7.0 for 18 hours. The sample was split into two 20 μL aliquots and treated with DTT/3-Methyl-2-benzothiazolinone hydrazone hydrochloride hydrate and heated at 80° C. for 15 minutes. A solution of 0.5% (w/w) iron (III) ammonium sulfate dodecahydrate, 0.5% (w/w) sulfamic acid, and 0.25 N hydrochloric acid was added, mixed, and cooled to room temperature. […] Protein and dPNAG in buffer H were used as background controls.

[3] = tested on: PNAG-overproducing E. coli; assay: Inhibition of PNAG-dependent E. coli biofilm formation (crystal violet); conditions: read-out: EC50 of E. coli biofilm formation prevention, static 24 h at 26° C.
Procedure: In brief, PNAG-overproducing E. coli or S. carnosus was grown at 37° C. overnight in LB broth supplement with 200 μg/mL ampicillin and 100 μg/mL kanamycin, and 10 μg/mL tetracycline, respectively, with shaking at 200 rpm. Fresh cultures with antibiotic were prepared from the overnight culture using a 1:100 dilution, using LB broth for E. coli, and tryptic soy broth for S. carnosus. 95 μL of diluted culture was added to a sterile 96-well polystyrene round bottom microtiter plate and varying concentrations of protein (2 nM-5 μM) were added in 5 μL aliquots to give a final volume of 100 μL. The cultures were incubated statically for 24 h at 26° C. for E. coli, and 37° C. for S. carnosus, to allow for biofilm formation. To eliminate edge-effects, ˜200 μL of sterile water was placed in all outside wells and the plate was sealed with parafilm. After incubation non-adherent cells and media were removed by washing the plate with deionized water three times. The wells were stained with 150 μL of 0.1% (w/v) crystal violet for 10 min, and washed with water three times. The remaining dye was solubilized with 100 μL of 33% (v/v) acetic acid for 10 min with rotation, after which time the absorbance was measured at 595 nm using a SpectraMax M2 from Molecular Devices (Sunnyvale, Calif.). […] All reactions were completed in at least triplicates and buffer G was used as an untreated control. Either an E. coli pgaABCD knockout strain (DPGA) or S. carnosus treated with gentamycin, was used as a control for background straining.

[4] = tested on: pre-formed A. fumigatus GAG biofilms; type: cell-based; conditions: for dispersal of pre-formed GAG biofilm (in words): crystal violet
[5] = purified protein
[6] = tested on: A549 pulmonary epithelial cell line injured by A. fumigatus; assay: Chromium release epithelial cell damage assay; conditions: recombinant Sph3 hydrolases, up to 24 h
Procedure: The immortalized airway epithelial cell line A549 was loaded with chromium-51 by incubating monolayers grown in 24-well tissue culture plates with 3 mCi of ^51Cr at 37° C. in 5% CO2 for 24 h. Excess chromium was removed by washing with Hank's Balanced Salt Solution (HBSS). […] For testing germ tubes, conidia were grown for 7 h in SAB media at 37° C., then the fungus was collected and resuspended in DF12K media before 0.5 μM of hydrolase was added. The germ tubes were incubated with hydrolase for 1 h before being added to the A549 cells. After 16, 20 and 24 h of co-incubation, an aliquot of the medium above the cells was retrieved and replaced with fresh media. The cells were then lysed with 6 N NaOH and the lysate collected. The ^51Cr content of the medium and lysates was then measured in a gamma counter and the extent of epithelial cell damage was calculated as a function of the degree of ^51Cr release. Each strain was tested in triplicate, and all results were corrected for spontaneous chromium release by uninfected epithelial cells.
The methodology for prevention of epithelial cell damage caused by A. fumigatus using Sph352-298 is identical to that previously described in Example 19 for the use PelA47-303.

A. fumigatus GAG biofilm = assay: Inhibition of GAG-dependent A. fumigatus biofilm formation (crystal violet); type: cell-based
[7] = Reducing sugar assay on purified GAG; type: biochemical, A. fumigatus; conditions: 10-20 μM protein, 26° C., 24 h
Procedure: Crude GAG was isolated from A. fumigatus biofilms. 200 μL GAG aliquots were centrifuged to pellet the gelatinous fraction. The pellets were washed twice with 350 μL PBS. The wash procedure included vortexing for 5 min, sonicated in a bath for 3 min, and manual mixing by pipetting to reach homogeneity. The final pellet was resuspended in 200 μL of PBS. Samples were treated with 10-20 μM protein and incubated at 26° C. Samples were taken at 24 h. GAG hydrolysis was quantified using a reducing sugar assay as described previously (Anthon & Barrett 2002) with slight modifications. Briefly, 20 μL of enzyme reaction was mixed with 20 μL of 0.5 M NaOH and 20 μL of MBTH/DTT solution (1.5 mg/L 3-methyl-2-benzothiazolinone hydrazine (MBTH) and 0.5 mg/L DTT). The samples were incubated at 80° C. for 15 min before the addition of 40 μL of acidic iron reagent (0.5% (FeNH4(SO4)2).12 H2O, 0.5% sulfamic acid, and 0.25 N HCl). Samples were diluted two-fold in water, before the absorbance was quantified at 620 nm.

Molecule	EC50 [1] [nM]	dPNAG hydrolysis (in words) [2]	EC50 [3] [nM]	dispersal of pre-formed GAG biofilm (in words) [4]	concentration to which the protein could be concentrated [5] [µg/mL]	epithelial cell damage by A. fumigatus, chromium release [6]	inhibition of A. fumigatus biofilm formation by recombinant Sph3 (in words) (A. fumigatus GAG biofilm)	also measured
B1	~170	hydrolyze dPNAG	~40					
B2				less efficacious				dispersal of pre-formed GAG biofilm (in words) ([4]; listed as GmPelA23-277): less effective at eliminating GAG biofilms
B3	200	hydrolyze dPNAG	~230		8000 to 10000			
B4						completely protected epithelial cells from damage by A. fumigatus for 24 h	inhibit the formation of A. fumigatus biofilms in a dose dependent manner	epithelial cell damage by A. fumigatus, chromium release ([6]; listed as Sph3 from A. nidulans): reduced fungal damage to epithelial cells
B5				elimination of the GAG biofilms; also recorded: capable of disrupting GAG-dependent biofilms	8000 to 10000	reduced fungal damage to epithelial cells	inhibit the formation of A. fumigatus biofilms in a dose dependent manner	GAG hydrolysis, reducing ends (in words) [7]: number of reducing ends in solution increased; activity against preformed biofilms of multiple A. fumigatus strains / clinical isolates [4]: dose-dependent activity; also recorded: active against multiple strains of A. fumigatus; concentration sufficient at preventing GAG biofilm formation ([4]; FIG. 36, crystal violet): 280 nM
B6	> 1000	hydrolyze dPNAG	~90					
